The values below come from paper doi:10.1101/2024.01.10.575016, “Cell Cycle Regulation has Shaped Budding Yeast Replication Origin Structure and Function” (bioRxiv, 2024).

One experiment has as its target T1, Mcm3 (budding yeast, UniProt P24279 1-971).
T1 construct: Mcm3, budding yeast
Description: cryo-EM structure; MCM loading reaction on nucleosome-flanked ARS1 DNA (15 nM) with CDK-phosphorylated Orc6-4A ORC (40 nM) and MCM-Cdt1 (80 nM), 2.2 mM ATP, 30°C 30 min; SH and DH particles from the same data. The settings on record: both partners purified.

Another experiment deals with T2, Mcm4 (budding yeast, UniProt P30665 1-933).
T2 construct: Mcm4, budding yeast
T2 sequence: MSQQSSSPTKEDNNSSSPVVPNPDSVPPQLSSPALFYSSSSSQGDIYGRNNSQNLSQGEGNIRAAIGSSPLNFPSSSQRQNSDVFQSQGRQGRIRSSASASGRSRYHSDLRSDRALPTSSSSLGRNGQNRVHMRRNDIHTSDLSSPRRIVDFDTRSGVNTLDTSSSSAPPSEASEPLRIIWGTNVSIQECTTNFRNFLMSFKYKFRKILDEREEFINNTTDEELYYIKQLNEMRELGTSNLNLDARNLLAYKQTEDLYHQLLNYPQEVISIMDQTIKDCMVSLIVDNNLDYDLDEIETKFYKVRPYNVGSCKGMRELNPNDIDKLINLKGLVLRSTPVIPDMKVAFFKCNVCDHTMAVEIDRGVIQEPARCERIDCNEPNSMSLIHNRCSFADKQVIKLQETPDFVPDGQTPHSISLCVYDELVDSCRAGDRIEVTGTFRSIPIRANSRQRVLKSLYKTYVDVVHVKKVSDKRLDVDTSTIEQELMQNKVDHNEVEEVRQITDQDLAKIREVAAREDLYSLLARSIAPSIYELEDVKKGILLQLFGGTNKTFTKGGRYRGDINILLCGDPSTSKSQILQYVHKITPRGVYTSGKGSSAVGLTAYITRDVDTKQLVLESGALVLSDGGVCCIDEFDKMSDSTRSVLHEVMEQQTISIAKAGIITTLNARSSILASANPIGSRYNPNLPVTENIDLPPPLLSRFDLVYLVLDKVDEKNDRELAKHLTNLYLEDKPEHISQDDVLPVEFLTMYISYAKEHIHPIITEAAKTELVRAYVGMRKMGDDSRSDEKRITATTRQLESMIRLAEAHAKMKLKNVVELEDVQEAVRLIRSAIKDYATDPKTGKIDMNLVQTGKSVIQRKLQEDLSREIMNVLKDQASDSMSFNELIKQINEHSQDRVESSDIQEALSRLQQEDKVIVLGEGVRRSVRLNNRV
The experiment is described as above. To be noted: both partners purified.

T1 sequence (P24279 whole entry): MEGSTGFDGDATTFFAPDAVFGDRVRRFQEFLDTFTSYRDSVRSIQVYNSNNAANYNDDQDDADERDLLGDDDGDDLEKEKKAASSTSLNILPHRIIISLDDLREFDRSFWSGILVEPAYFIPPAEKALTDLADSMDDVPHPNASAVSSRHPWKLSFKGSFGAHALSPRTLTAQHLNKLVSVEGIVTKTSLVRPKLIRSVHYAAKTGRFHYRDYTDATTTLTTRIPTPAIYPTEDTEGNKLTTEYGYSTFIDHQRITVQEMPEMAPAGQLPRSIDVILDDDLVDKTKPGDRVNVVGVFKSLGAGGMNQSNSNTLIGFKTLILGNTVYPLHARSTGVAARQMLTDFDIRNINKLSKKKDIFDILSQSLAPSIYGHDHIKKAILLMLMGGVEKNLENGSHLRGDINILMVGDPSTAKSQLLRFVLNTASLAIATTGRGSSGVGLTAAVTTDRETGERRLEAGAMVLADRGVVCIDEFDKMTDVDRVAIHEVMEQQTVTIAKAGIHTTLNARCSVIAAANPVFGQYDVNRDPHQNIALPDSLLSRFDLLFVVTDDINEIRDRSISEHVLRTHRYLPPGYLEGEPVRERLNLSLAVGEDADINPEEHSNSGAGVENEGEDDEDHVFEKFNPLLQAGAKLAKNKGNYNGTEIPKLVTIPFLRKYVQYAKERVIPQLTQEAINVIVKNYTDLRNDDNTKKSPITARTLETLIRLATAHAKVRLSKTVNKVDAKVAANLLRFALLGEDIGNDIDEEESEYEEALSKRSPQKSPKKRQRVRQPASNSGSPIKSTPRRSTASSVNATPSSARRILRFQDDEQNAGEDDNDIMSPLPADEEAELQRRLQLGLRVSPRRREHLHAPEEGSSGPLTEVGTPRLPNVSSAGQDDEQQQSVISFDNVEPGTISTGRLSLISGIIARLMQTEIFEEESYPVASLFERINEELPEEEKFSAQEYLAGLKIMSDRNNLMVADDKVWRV

B1: Mcm7 (natural protein, budding yeast)
chain: MSAALPSIQLPVDYNNLFNEITDFLVTFKQDTLSSDATRNENEDENLDAENIEQHLLEKGPKYMAMLQKVANRELNSVIIDLDDILQYQNEKFLQGTQADDLVSAIQQNANHFTELFCRAIDNNMPLPTKEIDYKDDVLDVILNQRRLRNERMLSDRTNEIRSENLMDTTMDPPSSMNDALREVVEDETELFPPNLTRRYFLYFKPLSQNCARRYRKKAISSKPLSVRQIKGDFLGQLITVRGIITRVSDVKPAVEVIAYTCDQCGYEVFQEVNSRTFTPLSECTSEECSQNQTKGQLFMSTRASKFSAFQECKIQELSQQVPVGHIPRSLNIHVNGTLVRSLSPGDIVDVTGIFLPAPYTGFKALKAGLLTETYLEAQFVRQHKKKFASFSLTSDVEERVMELITSGDVYNRLAKSIAPEIYGNLDVKKALLLLLVGGVDKRVGDGMKIRGDINVCLMGDPGVAKSQLLKAICKISPRGVYTTGKGSSGVGLTAAVMKDPVTDEMILEGGALVLADNGICCIDEFDKMDESDRTAIHEVMEQQTISISKAGINTTLNARTSILAAANPLYGRYNPRLSPLDNINLPAALLSRFDILFLMLDIPSRDDDEKLAEHVTYVHMHNKQPDLDFTPVEPSKMREYIAYAKTKRPVMSEAVNDYVVQAYIRLRQDSKREMDSKFSFGQATPRTLLGIIRLSQALAKLRLADMVDIDDVEEALRLVRVSKESLYQETNKSKEDESPTTKIFTIIKKMLQETGKNTLSYENIVKTVRLRGFTMLQLSNCIQEYSYLNVWHLINEGNTLKFVDDGTMDTDQEDSLVSTPKLAPQTTASANVSAQDSDIDLQDA
notes: Mcm7, budding yeast
B1: the binding result with Mcm3 and with Mcm4 was “binds” throughout.
